Molecular target: T1, MBP-AF9 (MBP carrier left out. The construct limits are not given; the C-terminal ANC1 homology domain (AHD), named as the DOT1L-binding domain, is taken by convention as about 500-568.)
T1 chain: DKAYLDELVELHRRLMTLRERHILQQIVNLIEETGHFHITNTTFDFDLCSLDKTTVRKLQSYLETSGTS
Assay: fluorescence polarisation; competitive: serial dilutions of peptide with fixed MBP-AF9 (200 nM) and N-Flu-DOT1L (10 nM); 100 mM NaH2PO4, 150 mM NaCl, 0.1% β-ME, 0.01% Triton X-100; room temperature, 3 h
Conditions: both partners purified

Ki: 20 nM
B1: DOT1L WT 10mer (865–874) peptide (peptide, UniProt Q8TEK3 865-874, looked up)
peptide: LPISIPLSTV
notes: the DOT1L constructs of the cell lines are human; also called 10mer peptide from residues 865–874; 10mer DOT1L peptide; source: synthetic peptide

— paper PMC7914713, “Elucidating the Importance of DOT1L Recruitment in MLL-AF9 Leukemia and Hematopoiesis” (Cancers, 2021)
